39 molecules from patent US20220259593A1, “CONTROL OF MAMMALIAN GENE DOSAGE USING CRISPR” (The Regents of the University of California, priority 2019, published 2022) can be followed below.

Changes are numbered by the printed parent chain.

This data set concerns K562 CRISPRi cells. The experiment in a line: Constant region variant library pooled growth screen, K562. In kind it is cell-based, human. The conditions noted are these: sgRNA constant region variants; activity relative to the original, un-modified constant region cr995. The method, boiled down: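 Growth screens in K562 CRISPRi cells were harvested 4-8 days post-selection at >2000× library coverage. Each variant's phenotype was referenced to the unmodified constant region with the same targeting sequence.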

B1: cr477 (nucleic acid)
guide: GTTTAAGAGCTAAGCTGGAAACAGCATAGCAAGTTTAAATAAGGCTAGTCCGTTACCAACTTGAAAAAGTGGCACCGAGTCGGTGCT
modifications: listed as DNA, chemistry not fully specified
B1 came in with a Mean relative activity of 1.055.

B2: cr568 (nucleic acid)
guide: B1 guide with C56T, A59T, T61G, A68C, T70A, C75A, G83T
modifications: listed as DNA, chemistry not fully specified
Molecule B2 yielded a Mean relative activity of 1.054.

B3: cr712 (nucleic acid)
guide: B1 guide with G24C, C56T
modifications: listed as DNA, chemistry not fully specified
As for B3, the Mean relative activity was found to be 0.7744.

B4: cr886 (nucleic acid)
guide: B1 guide with C56T, C60A, T62A, A67T, G69T, C75G, G83C
modifications: listed as DNA, chemistry not fully specified
With B4, the Mean relative activity was 0.7791.

B5: cr890 (nucleic acid)
guide: B1 guide with C56T, A78C, T87C
modifications: listed as DNA, chemistry not fully specified
Molecule B5 gave a Mean relative activity of 0.7513.

B6: cr763 (nucleic acid)
guide: B1 guide with T49C, C56T
modifications: listed as DNA, chemistry not fully specified
Turning to B6, the Mean relative activity turned out to be 0.7264.

B7: cr439 (nucleic acid)
guide: B1 guide with T16A, C56T
modifications: listed as DNA, chemistry not fully specified
B7 returned a Mean relative activity of 0.7506.

B8: cr723 (nucleic acid)
guide: B1 guide with C56T, T61C, A68G, C75G, G83C
modifications: listed as DNA, chemistry not fully specified
B8: the Mean relative activity is listed as 1.054.

B9: cr457 (nucleic acid)
guide: B1 guide with C56T, G85T
modifications: listed as DNA, chemistry not fully specified
As for B9, the Mean relative activity is 0.7254.

B10: cr550 (nucleic acid)
guide: B1 guide with C56T, C76A, G77A, C81T, G82T
modifications: listed as DNA, chemistry not fully specified
The molecule B10 returned a Mean relative activity of 0.7679.

B11: cr558 (nucleic acid)
guide: B1 guide with C56T, A74T, C76G, G82C, T84A
modifications: listed as DNA, chemistry not fully specified
B11: the Mean relative activity was determined as 0.7679.

B12: cr219 (nucleic acid)
guide: B1 guide with G44C, C50G, C56T, A65G
modifications: listed as DNA, chemistry not fully specified
As for B12, the Mean relative activity came to 0.7779.

B13: cr474 (nucleic acid)
guide: B1 guide with C56T, G77T
modifications: listed as DNA, chemistry not fully specified
B13 displayed a Mean relative activity of 0.7254.

B14: cr645 (nucleic acid)
guide: B1 guide with G44C, C50G, C56T, T61G, A68C, C76G, G82C
modifications: listed as DNA, chemistry not fully specified
In turn, B14 displayed a Mean relative activity of 0.7179.

B15: cr508 (nucleic acid)
guide: B1 guide with T46C, T54G, C56T, T80C
modifications: listed as DNA, chemistry not fully specified
B15 yielded a Mean relative activity of 0.7636.

B16: cr278 (nucleic acid)
guide: B1 guide with T49C, C56T, G79A
modifications: listed as DNA, chemistry not fully specified
B16 displayed a Mean relative activity of 0.7368.

B17: cr875 (nucleic acid)
guide: B1 guide with C56T, A59C, T62G, A67C, T70G, G77C, C81G
modifications: listed as DNA, chemistry not fully specified
For the molecule B17, the Mean relative activity worked out at 0.743.

B18: cr836 (nucleic acid)
guide: B1 guide with C56T, C60T
modifications: listed as DNA, chemistry not fully specified
As to B18, the Mean relative activity came to 0.7574.

B19: cr594 (nucleic acid)
guide: B1 guide with A28T, A42G, T53C, C56T
modifications: listed as DNA, chemistry not fully specified
B19 came in with a Mean relative activity of 0.7395.

B20: cr779 (nucleic acid)
guide: B1 guide with C56T, C60A, G69T, C73T, C75A, G83T, G85A
modifications: listed as DNA, chemistry not fully specified
Consider B20, for which the Mean relative activity worked out at 0.7512.

B21: cr164 (nucleic acid)
guide: B1 guide with C56T, A74C
modifications: listed as DNA, chemistry not fully specified
In turn, B21 returned a Mean relative activity of 0.7776.

B22: cr859 (nucleic acid)
guide: B1 guide with G29C, A47T, C56T, A65G
modifications: listed as DNA, chemistry not fully specified
In turn, B22 showed a Mean relative activity of 0.7625.

B23: cr684 (nucleic acid)
guide: B1 guide with C56T, C76T, G77A, C81T, G82A
modifications: listed as DNA, chemistry not fully specified
In turn, B23 showed a Mean relative activity of 0.7672.

B24: cr341 (nucleic acid)
guide: B1 guide with G44T, C50A, C56T, G72C, C73T, G85A, C86G
modifications: listed as DNA, chemistry not fully specified
For B24, the Mean relative activity turned out to be 0.7299.

B25: cr505 (nucleic acid)
guide: B1 guide with A28T, A42G, C56T, G79T
modifications: listed as DNA, chemistry not fully specified
For B25, the Mean relative activity amounted to 0.7459.

B26: cr852 (nucleic acid)
guide: B1 guide with C56T, C60G, T61A, T62A, G63A, A67T, G69C
modifications: listed as DNA, chemistry not fully specified
For B26, the Mean relative activity is reported as 0.7542.

B27: cr168 (nucleic acid)
guide: B1 guide with G44A, C50T, C56T, C60A, G69T
modifications: listed as DNA, chemistry not fully specified
In turn, B27 yielded a Mean relative activity of 0.7238.

B28: cr119 (nucleic acid)
guide: B1 guide with C56T, G69T
modifications: listed as DNA, chemistry not fully specified
The molecule B28 registered a Mean relative activity of 0.7902.

B29: cr867 (nucleic acid)
guide: B1 guide with C50T, C56T
modifications: listed as DNA, chemistry not fully specified
In turn, B29 returned a Mean relative activity of 0.7502.

B30: cr742 (nucleic acid)
guide: B1 guide with C45A, G48T, C56T, T62C, A67G
modifications: listed as DNA, chemistry not fully specified
As to B30, the Mean relative activity turned out to be 0.7141.

B31: cr695 (nucleic acid)
guide: B1 guide with T53A, A55G, C56T, A64T
modifications: listed as DNA, chemistry not fully specified
In turn, B31 yielded a Mean relative activity of 0.751.

B32: cr443 (nucleic acid)
guide: B1 guide with T16G, C56T
modifications: listed as DNA, chemistry not fully specified
Consider B32, for which the Mean relative activity was determined as 0.7774.

B33: cr380 (nucleic acid)
guide: B1 guide with C56T, A65G, C73T, G85A
modifications: listed as DNA, chemistry not fully specified
B33 registered a Mean relative activity of 1.055.

B34: cr635 (nucleic acid)
guide: B1 guide with C56T, A78G
modifications: listed as DNA, chemistry not fully specified
In turn, B34 returned a Mean relative activity of 0.7174.

B35: cr449 (nucleic acid)
guide: B1 guide with G44C, C50G, C56T, C75G, G83C
modifications: listed as DNA, chemistry not fully specified
B35 returned a Mean relative activity of 0.7698.

B36: cr819 (nucleic acid)
guide: B1 guide with A28C, A47G, T53G, C56T
modifications: listed as DNA, chemistry not fully specified
For B36, the Mean relative activity amounted to 0.7667.

B37: cr887 (nucleic acid)
guide: B1 guide with A31C, A47C, C56T, G63C
modifications: listed as DNA, chemistry not fully specified
Take B37: the Mean relative activity stood at 0.7504.

B38: cr555 (nucleic acid)
guide: B1 guide with G44T, C50A, C56T
modifications: listed as DNA, chemistry not fully specified
B38 showed a Mean relative activity of 0.719.

B39: cr426 (nucleic acid)
guide: B1 guide with G33A, T53C, C56T
modifications: listed as DNA, chemistry not fully specified
Molecule B39 showed a Mean relative activity of 0.7265.
